Kd data for two molecules are collected here from paper PMC8648464.

Data set [1] addresses T1, E. coli single-stranded DNA binding protein (SSB) (Escherichia coli, UniProt P0AGE0 1-178). The data set is described as follows: single-molecule free solution hydrodynamic separation.
The target in data set [2] is T1, E. coli single-stranded DNA binding …. The data set can be described thus: competition.
The target is the same in data set [3]. The data set is described as follows: single-molecule free solution hydrodynamic separation. This is another data set of the same source.
The target is the same in data set [4]. The data set is described as follows: competition. This is another data set of the same source.

T1 sequence (P0AGE0 whole entry): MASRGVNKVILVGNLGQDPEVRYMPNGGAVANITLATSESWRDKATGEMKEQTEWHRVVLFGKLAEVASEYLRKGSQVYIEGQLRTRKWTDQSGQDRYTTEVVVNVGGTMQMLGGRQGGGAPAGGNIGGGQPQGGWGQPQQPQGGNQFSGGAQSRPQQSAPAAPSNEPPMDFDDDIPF

In the case of TTTTTTTTTTTTTTTTTTTTTTTTTTTTTTTTTTT (ssDNA) [35nt poly(dT)], the figures for the Kd in data set [1] and in data set [2] were 10 ± 0.5 nM and 11.7 ± 0.6 nM, respectively.

B1: 70nt poly(dT) (ssDNA)
DNA: TTTTTTTTTTTTTTTTTTTTTTTTTTTTTTTTTTTTTTTTTTTTTTTTTTTTTTTTTTTTTTTTTTTTTT
With B1, the Kd (as a rule, a measure of binding affinity in units of concentration) in data set [3] turned out to be 21.7 ± 0.2 nM; in data set [4] it was 22.1 ± 1.5 nM.
